The values that follow come from patent US20230190901A1 (published 2023).

First the molecules themselves.
T1: MAGEC2 peptide on HLA-A*02 (human)
T1 peptide: FVYGEPREL

T2: MAGEC2 peptide on HLA-A*02 (human)
T2 peptide: ALIEVGPDHFCV

B1: TCR of SEQ ID NOs 32 and 33 (TCR, V domains shown)
Valpha: KQEVTQIPAALSVPEGENLVLNCSFTDSAIYNLQWFRQDPGKGLTSLLLIQSSQREQTSGRLNASLDKSSGRSTLYIAASQPGDSATYLCAVREWDARLMFGDGTQLVVKP
Vbeta: NAGVTQTPKFQVLKTGQSMTLQCAQDMNHNSMYWYRQDPGMGLRLIYYSASEGTTDKGEVPNGYNVSRLNKREFSLRLESAAPSQTSVYFCASSLLRGWTEAFFGQGTRLTVV
B2: TCR of SEQ ID NOs 36 and 37 (TCR, V domains shown)
Valpha: KQEVTQIPAALSVPEGENLVLNCSFTDSAIYNLQWFRQDPGKGLTSLLLIQSSQREQTSGRLNASLDKSSGRSTLYIAASQPGDSATYLCAVTGGTSYGKLTFGQGTILTVHP
Vbeta: NAGVTQTPKFRILKIGQSMTLQCTQDMNHNYMYWYRQDPGMGLKLIYYSVGAGITDKGEVPNGYNVSRSTTEDFPLRLELAAPSQTSVYFCASSYWAGVLTEAFFGQGTRLTVV
B3: TCR of SEQ ID NOs 34 and 35 (TCR, V domains shown)
Valpha: KQEVTQIPAALSVPEGENLVLNCSFTDSAIYNLQWFRQDPGKGLTSLLLIQSSQREQTSGRLNASLDKSSGRSTLYIAASQPGDSATYLCAVTGNTPLVFGKGTRLSVIA
Vbeta: NAGVTQTPKFQVLKTGQSMTLQCAQDMNHEYMSWYRQDPGMGLRLIHYSVGAGITDQGEVPNGYNVSRSTTEDFPLRLLSAAPSQTSVYFCASSYSPYYEQYFGPGTRLTVT
B4: TCR of SEQ ID NOs 28 and 29 (TCR, V domains shown)
Valpha: KQEVTQIPAALSVPEGENLVLNCSFTDSAIYNLQWFRQDPGKGLTSLLLIQSSQREQTSGRLNASLDKSSGRSTLYIAASQPGDSATYLCAVKGRGTYKYIFGTGTRLKVLA
Vbeta: NAGVTQTPKFRVLKTGQSMTLQCAQDMNHNSMYWYRQDPGMGLRLIYYSASEGTTDKGEVPNGYNVSRLNKREFSLRLESAAPSQTSVYFCASSYYGGSGAGYEQYFGPGTRLTVT
B5: TCR of SEQ ID NOs 26 and 27 (TCR, V domains shown)
Valpha: KQEVTQIPAALSVPEGENLVLNCSFTDSAIYNLQWFRQDPGKGLTSLLLIQSSQREQTSGRLNASLDKSSGRSTLYIAASQPGDSATYLCAVVDSWGKLQFGAGTQVVVTP
Vbeta: NAGVTQTPKFQVLKTGQSMTLQCAQDMNHNSMYWYRQDPGMGLRLIHYSVGAGITDQGEVPNGYNVSRSTTEDFPLRLLSAAPSQTSVYFCASSPWGGATEAFFGQGTRLTVV
B6: TCR of SEQ ID NOs 30 and 31 (TCR, V domains shown)
Valpha: KQEVTQIPAALSVPEGENLVLNCSFTDSAIYNLQWFRQDPGKGLTSLLLIQSSQREQTSGRLNASLDKSSGRSTLYIAASQPGDSATYLCAVNEGSNYKLTFGKGTLLTVNP
Vbeta: NAGVTQTPKFRILKIGQSMTLQCTQDMNHNYMYWYRQDPGMGLKLIYYSVGAGITDKGEVPNGYNVSRSTTEDFPLRLELAAPSQTSVYFCASSYSSPHYGYTFGSGTRLTVV

In the first experiment the target is T1, MAGEC2 peptide on HLA-A*02. As to the kind of experiment: binding, other.
As for B1, the binding result is given as “recognises”. Same read-out and setting: to B2 belongs “recognises”; to B3, “recognises”.

Another experiment concerns the target T2, MAGEC2 peptide on HLA-A*02. As to the kind of experiment: binding, other.
Take B4: the binding result was “recognises”. The same measure, in the same setting: to B5 belongs “recognises”; to B6, “recognises”.
